IntAct's records for PubMed 18776901

B1: Non-catalytic caspase homolog csp-3 (Caenorhabditis elegans), G5ECW5 (parent)
chain: MFFGKLGGFAFFLQRAVRCDGFIDNFFDRIPKFFQFMKSKFPSHQTSSSQADLLVSFSTSPGFLSFKDETKDTWYIQELYRVIIENAKDTHLADLLTETNRRVVEKYEADKVVFVCKQAPEFWSRFTKQLFFMSRNDVF
partner: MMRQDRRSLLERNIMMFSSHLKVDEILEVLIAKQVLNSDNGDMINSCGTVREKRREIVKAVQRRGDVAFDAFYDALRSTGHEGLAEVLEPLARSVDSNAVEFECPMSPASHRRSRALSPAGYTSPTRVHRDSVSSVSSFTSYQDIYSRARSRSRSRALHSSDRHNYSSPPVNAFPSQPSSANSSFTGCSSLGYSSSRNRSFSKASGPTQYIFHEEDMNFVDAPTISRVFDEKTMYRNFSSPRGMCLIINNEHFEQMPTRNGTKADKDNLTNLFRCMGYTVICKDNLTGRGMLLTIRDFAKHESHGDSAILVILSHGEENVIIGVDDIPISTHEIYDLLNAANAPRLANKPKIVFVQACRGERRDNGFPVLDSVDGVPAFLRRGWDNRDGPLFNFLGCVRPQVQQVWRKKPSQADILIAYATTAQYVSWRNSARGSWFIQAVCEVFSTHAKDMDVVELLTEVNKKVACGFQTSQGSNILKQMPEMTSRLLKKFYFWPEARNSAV

Variants of: B1
Settings: with ced3_caeel ced-3, P42573

Row | Variant | effect of a mutation on the interaction
1 | MFFGKLGGFAFFLQRAVRCDGFIDNFFDRIPKFFQFMKSKFPSHQTSSSQADLLVSDSTSPGFLSFKDETKDTWYIQELYRVIIENAKDTHLADLLTETNRRVVEKYEADKVVFVCKQAPEFWSRFTKQLFFMSRNDVF [F57D] | decreasing interaction

Variants of: B1
Settings: with ced3_caeel ced-3, P42573
Remark: another data set of the same source

Row | Variant | effect of a mutation on the interaction
2 | MFFGKLGGFAFFLQRAVRCDGFIDNFFDRIPKFFQFMKSKFPSHQTSSSQADLLVSDSTSPGFLSFKDETKDTWYIQELYRVIIENAKDTHLADLLTETNRRVVEKYEADKVVFVCKQAPEFWSRFTKQLFFMSRNDVF [F57D] | decreasing interaction strength
